The text below walks through data of the Immune Epitope Database (IEDB).

The target of test [1] is HLA-A*02:03. Briefly: IEDB peptide-MHC binding, purified MHC/competitive/radioactivity; filed as Kd, often an IC50 or EC50 that approximates it; ≥ and ≤ were set here for values at or beyond the usual limits of such assays.
The target in a further test is HLA-A*02:06. Described as above.
For another test, the target named is HLA-A*02:17. The test is described as above.
In test [2] the target is HLA-A*02:01. The test is described as above.
The target of the next test is HLA-A*01:01. Briefly: IEDB peptide-MHC binding, purified MHC/competitive/fluorescence; filed as Kd, often an IC50 or EC50 that approximates it; ≥ and ≤ were set here for values at or beyond the usual limits of such assays.
Test [3] deals with HLA-A*26:01. Described as above.
The target in the next test is HLA-B*15:01. Described as above.
The target of test [4] is HLA-A*26:01. Briefly: IEDB peptide-MHC binding, purified MHC/competitive/radioactivity; filed as Kd, often an IC50 or EC50 that approximates it; ≥ and ≤ were set here for values at or beyond the usual limits of such assays. As to conditions: source organism: Dengue virus 2 Jamaica/1409/1983.
For test [5], the target named is HLA-A*68:02. The description is as above.
Test [6] has as its target HLA-A*02:03. Briefly: IEDB peptide-MHC binding, purified MHC/direct/fluorescence; filed as Kd, often an IC50 or EC50 that approximates it; ≥ and ≤ were set here for values at or beyond the usual limits of such assays.
The target of another test is HLA-A*02:19. The test is described as above.
In test [7] the target is HLA-A*26:01. Described as above. As to conditions: source organism: Bacillus anthracis str. A0465.
Test [8] has as its target HLA-A*68:02. Described as above. As to conditions: source organism: Bacillus anthracis str. A0465.
For test [9], the target named is HLA-A*69:01. The description is as above. As to conditions: source organism: Bacillus anthracis str. A0465.
The target of test [10] is HLA-B*18:01. The description is as above. The following applies: source organism: Bacillus anthracis str. A0465.
Test [11] has as its target HLA-B*39:01. The description is as above. As to conditions: source organism: Bacillus anthracis str. A0465.
The target in test [12] is HLA-B*46:01. The test is described as above. The following applies: source organism: Bacillus anthracis str. A0465.
Test [13] addresses HLA-B*51:01. The description is as above. As to conditions: source organism: Bacillus anthracis str. A0465.
For the next test, the target named is HLA-B*35:01. The test is described as follows: IEDB peptide-MHC binding, purified MHC/competitive/radioactivity; filed as Kd, often an IC50 or EC50 that approximates it; ≥ and ≤ were set here for values at or beyond the usual limits of such assays. The following applies: source organism: Dengue virus 3 Martinique/1243/1999.
In another test the target is HLA-A*03:01. The test is described as follows: IEDB peptide-MHC binding, purified MHC/competitive/fluorescence; filed as Kd, often an IC50 or EC50 that approximates it; ≥ and ≤ were set here for values at or beyond the usual limits of such assays.
Another test addresses HLA-A*02:12. Briefly: IEDB peptide-MHC binding, purified MHC/direct/fluorescence; filed as Kd, often an IC50 or EC50 that approximates it; ≥ and ≤ were set here for values at or beyond the usual limits of such assays. The following applies: source organism: Orthohantavirus negraense.
For a further test, the target named is HLA-A*02:16. Described as above. As to conditions: source organism: Orthohantavirus negraense.
A further test deals with HLA-A*24:03. The test is described as above. The following applies: source organism: Orthohantavirus negraense.
In a further test the target is HLA-A*29:02. The description is as above. The following applies: source organism: Orthohantavirus negraense.
Test [14] addresses HLA-A*02:01. The test is described as follows: IEDB peptide-MHC binding, purified MHC/competitive/fluorescence; filed as Kd, often an IC50 or EC50 that approximates it; ≥ and ≤ were set here for values at or beyond the usual limits of such assays. As to conditions: source organism: Orthohantavirus negraense.
Test [15] concerns the target HLA-A*69:01. Described as above. The following applies: source organism: Orthohantavirus negraense.
Another test addresses HLA-B*15:17. The description is as above. As to conditions: source organism: Orthohantavirus negraense.
For test [16], the target named is HLA-B*18:01. The description is as above. As to conditions: source organism: Orthohantavirus negraense.
The target in another test is HLA-B*27:03. The description is as above. The following applies: source organism: Orthohantavirus negraense.
For test [17], the target named is HLA-B*39:01. Described as above. As to conditions: source organism: Orthohantavirus negraense.
Test [18] concerns the target HLA-B*46:01. Described as above. As to conditions: source organism: Orthohantavirus negraense.
The target in test [19] is HLA-B*51:01. The description is as above. As to conditions: source organism: Orthohantavirus negraense.
Another test concerns the target HLA-B*57:01. The description is as above. As to conditions: source organism: Orthohantavirus negraense.
The next test concerns the target HLA-A*32:01. Briefly: IEDB peptide-MHC binding, purified MHC/competitive/radioactivity; filed as Kd, often an IC50 or EC50 that approximates it; ≥ and ≤ were set here for values at or beyond the usual limits of such assays. The following applies: source organism: Dengue virus 2 Peru/IQT2913/1996.
The mark [20] stands for this setting: source organism: Dengue virus 2 Peru/IQT2913/1996.
The mark [21] stands for this setting: source organism: Dengue virus 2 Thailand/NGS-C/1944.
The mark [22] stands for this setting: source organism: Dengue virus 3 China/80-2/1980.
[23] abbreviates: source organism: Dengue virus 2 Jamaica/1409/1983.
[24] abbreviates: source organism: Dengue virus 4 Philippines/H241/1956.
The mark [25] stands for this setting: source organism: Dengue virus 4 Dominica/814669/1981.
The mark [26] stands for this setting: source organism: Escherichia coli 536.
Where [27] appears, read: source organism: Bacillus anthracis str. A0465.
Where [28] appears, read: source organism: Dengue virus 3 Martinique/1243/1999.
Where [29] appears, read: source organism: Salmonella enterica subsp. enterica serovar Typhi.
[30] abbreviates: source organism: Orthohantavirus negraense.

Consider LLVISGLFPV, for which the Kd in the test with HLA-A*02:03 [1] (setting [20]) is 4.84 nM; with HLA-A*02:06 (setting [20]), 1.13 nM; with HLA-A*02:17 (setting [21]) it was 45.5 nM.
For VLLLVTHYAI, the Kd in the test with HLA-A*02:01 [2] (setting [22]) came out at 219 nM; with HLA-A*02:17 (setting [22]), 561 nM.
Take SLSVSLVLV: the Kd came to 58.5 nM in the test with HLA-A*02:01 [2] (setting [23]), 1.86 nM with HLA-A*02:03 [1] (setting [23]) and 4450 nM in the test with HLA-A*02:17 (setting [23]).
In the case of TLMLVALLGA, the Kd came out at 5.42 nM with HLA-A*02:01 [2] (setting [24]), 14.4 nM with HLA-A*02:03 [1] (setting [24]), 378 nM with HLA-A*02:06 (setting [24]) and 11000 nM with HLA-A*02:17 (setting [24]).
For the sequence KMSPGYVLGV, the Kd in the test with HLA-A*02:01 [2] (setting [25]) is 4.44 nM; with HLA-A*02:03 [1] (setting [25]) it was 0.57 nM; in the test with HLA-A*02:06 (setting [25]), 70.4 nM; with HLA-A*02:17 (setting [25]), 324 nM.
On to AVASLLDEY, for which the Kd with HLA-A*01:01 (setting [26]) amounted to 720 nM; with HLA-A*26:01 [3] (setting [26]) it was 871 nM; with HLA-B*15:01 (setting [26]) it was 96.2 nM.
For the sequence WTMKILIGV, the Kd with HLA-A*02:01 [2] (setting [23]) came to 22.5 nM; with HLA-A*02:06 (setting [23]) it was 17.7 nM; with HLA-A*02:17 (setting [23]) it was 6060 nM; with HLA-A*26:01 [4] it was 5360 nM; in the test with HLA-A*68:02 [5] (setting [23]), 8.95 nM.
As for RLLRFTGLF, the Kd with HLA-A*02:03 [6] (setting [27]), with HLA-A*02:19 (setting [27]), with HLA-A*26:01 [7], with HLA-A*68:02 [8], with HLA-A*69:01 [9] and with HLA-B*18:01 [10] was no less than 20000 nM each time. Further, the Kd in the test with HLA-B*39:01 [11], with HLA-B*46:01 [12] and with HLA-B*51:01 [13] was no less than 20000 nM each time.
Turning to TLLCLIPTA, the Kd in the test with HLA-A*02:01 [2] (setting [24]) stood at 5.77 nM; in the test with HLA-A*02:17 (setting [24]), 9560 nM.
In the case of SLLFKTEDGV, the results for the Kd with HLA-A*02:01 [2] (setting [23]) and in the test with HLA-A*02:17 (setting [23]) were 67.4 nM and 719 nM, respectively.
Regarding MLWMAEIPL, the Kd with HLA-A*02:01 [2] (setting [28]) stood at 4.11 nM; in the test with HLA-A*02:17 (setting [28]) it was 9.18 nM; in the test with HLA-B*35:01, 408 nM.
For the sequence WVAGVQLLY, the Kd with HLA-A*01:01 (setting [29]) was 39 nM; in the test with HLA-A*03:01 (setting [29]) it was 486 nM.
As to SLLFREVWK, the Kd in the test with HLA-A*02:03 [6] (setting [30]), with HLA-A*02:12, in the test with HLA-A*02:16, in the test with HLA-A*02:19 (setting [30]), with HLA-A*24:03 and with HLA-A*29:02 was no less than 20000 nM throughout. Moreover, the Kd with HLA-A*02:01 [14] is no less than 20000 nM; with HLA-A*03:01 (setting [30]), 37.4 nM; in the test with HLA-A*26:01 [3] (setting [30]), no less than 20000 nM; in the test with HLA-A*69:01 [15], no less than 20000 nM; with HLA-B*15:01 (setting [30]), no less than 20000 nM; with HLA-B*15:17, no less than 20000 nM. Moreover, the Kd in the test with HLA-B*18:01 [16], with HLA-B*27:03, with HLA-B*39:01 [17], with HLA-B*46:01 [18], with HLA-B*51:01 [19] and in the test with HLA-B*57:01 was no less than 20000 nM throughout.
Take GLFPVSIPI: the Kd with HLA-A*02:01 [2] (setting [21]) was 2.13 nM; with HLA-A*02:03 [1] (setting [20]) it was 4.32 nM; with HLA-A*02:17 (setting [21]), 69.9 nM; in the test with HLA-A*32:01 it was 6.47 nM.
In the case of FTMGVLCLA, the Kd with HLA-A*02:01 [2] (setting [22]) came out at 12.3 nM; with HLA-A*02:03 [1] (setting [28]) it was 28.7 nM; in the test with HLA-A*02:06 (setting [28]) it was 3.17 nM; in the test with HLA-A*02:17 (setting [22]), 6740 nM; with HLA-A*68:02 [5] (setting [28]) it was 12.5 nM.

Broadly, the Kd is the free concentration of one partner at which half of the binding sites on the other are occupied at equilibrium, for simple one-to-one binding.
